One block for each substance: values may come before it.
Experiments:
[1] = target: human IL-18BP (amino acids 31-194), biotinylated (human) (UniProt O95998); assay: yeast display binding; conditions: ligand
Target sequence in this assay (O95998 other isoform, or with tags, fused parts or gaps): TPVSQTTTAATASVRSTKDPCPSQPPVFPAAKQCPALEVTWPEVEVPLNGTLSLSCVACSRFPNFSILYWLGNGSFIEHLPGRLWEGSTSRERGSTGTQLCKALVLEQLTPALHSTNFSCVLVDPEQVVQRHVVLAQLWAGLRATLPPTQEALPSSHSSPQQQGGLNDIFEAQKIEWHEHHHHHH

[2] = target: human IL-18BP (amino acids 31-194), biotinylated (human) (UniProt O95998); assay: SPR, representative sensorgram, immobilized biotinylated hIL-18BP
Target sequence in this assay (O95998 other isoform, or with tags, fused parts or gaps limits assumed, form in doubt): as the sequence (O95998 other isoform, or with tags, fused parts or gaps) above

[3] = target: human IL-18BP (amino acids 31-194), biotinylated (human) (UniProt O95998); assay: SPR, Biacore T100; hIL-18BP as surface ligand; Exp 2
Target sequence in this assay (O95998 other isoform, or with tags, fused parts or gaps limits assumed, form in doubt): as the sequence (O95998 other isoform, or with tags, fused parts or gaps) above

[4] = target: human IL-18BP (amino acids 31-194), biotinylated (human) (UniProt O95998); assay: SPR, Biacore T100; hIL-18BP as surface ligand, IL-18 as analyte
Target sequence in this assay (O95998 other isoform, or with tags, fused parts or gaps limits assumed, form in doubt): as the sequence (O95998 other isoform, or with tags, fused parts or gaps) above

[5] = target: human IL-18BP (amino acids 31-194), biotinylated (human) (UniProt O95998); assay: SPR; KD IL-18BP / KD IL-18Rα normalized to WT IL-18
Target sequence in this assay (O95998 other isoform, or with tags, fused parts or gaps limits assumed, form in doubt): as the sequence (O95998 other isoform, or with tags, fused parts or gaps) above

[6] = target: human IL-18BP (amino acids 31-194), biotinylated (human) (UniProt O95998); assay: SPR, Biacore T100; hIL-18BP as surface ligand; Exp 1
Target sequence in this assay (O95998 other isoform, or with tags, fused parts or gaps limits assumed, form in doubt): as the sequence (O95998 other isoform, or with tags, fused parts or gaps) above

[7] = target: human IL-18BP (amino acids 31-194), biotinylated (human) (UniProt O95998); assay: SPR, biotinylated receptor on streptavidin capture chip, IL-18 as free analyte
Target sequence in this assay (O95998 other isoform, or with tags, fused parts or gaps limits assumed, form in doubt): as the sequence (O95998 other isoform, or with tags, fused parts or gaps) above

[8] = target: human IL-18BP (amino acids 31-194), biotinylated (human) (UniProt O95998); assay: SPR, Biacore T100; biotinylated receptor on chip, IL-18 as analyte
[9] = target: human IL-18BP (amino acids 31-194), biotinylated (human) (UniProt O95998); assay: SPR, apparent KD
[10] = target: human IL-18BP (amino acids 31-194), biotinylated (human) (UniProt O95998); assay: SPR
[11] = target: human IL-18BP (amino acids 31-194), biotinylated (human) (UniProt O95998); assay: SPR, Biacore T100
[12] = target: human IL-18BP (amino acids 31-194), biotinylated (human) (UniProt O95998); assay: on-yeast binding isotherm, flow cytometry

Chain of wild-type human Interleukin-18 (mature form) (Q14116 37-193): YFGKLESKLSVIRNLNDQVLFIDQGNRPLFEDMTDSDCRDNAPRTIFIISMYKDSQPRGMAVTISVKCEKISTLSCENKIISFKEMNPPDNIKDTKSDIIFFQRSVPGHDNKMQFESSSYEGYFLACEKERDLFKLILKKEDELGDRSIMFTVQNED

Substance: human decoy-to-the-decoy (D2D) IL-18 consensus variant SEQ ID NO: 125 (from UniProt Q14116 37-193)
- Kd [1]: 8.9 nM

Substance: human decoy-to-the-decoy (D2D) IL-18 variant SEQ ID NO: 98 (from UniProt Q14116 38-193)
- Kd [1]: 5.4 nM

Substance: human decoy-to-the-decoy (D2D) IL-18 consensus variant SEQ ID NO: 123 (from UniProt Q14116 37-193)
- Kd [1]: 5.9 nM

Substance: human decoy-to-the-decoy (D2D) IL-18 variant SEQ ID NO: 94 (from UniProt Q14116 38-193)
- Kd [1]: 6.4 nM

Substance: human decoy-to-the-decoy (D2D) IL-18 variant SEQ ID NO: 101 (from UniProt Q14116 37-193)
- Kd [1]: 8.8 nM

Substance: human decoy-to-the-decoy (D2D) IL-18 variant SEQ ID NO: 120 (from UniProt Q14116 37-193)
- Kd [1]: 4.2 nM

Substance: human decoy-to-the-decoy (D2D) IL-18 variant SEQ ID NO: 99 (from UniProt Q14116 38-193)
- Kd [1]: 4.8 nM

- Kd [2]: 2 pM
- Kd [3]: 0.43 pM
- koff [4]: 2.23e-07 s⁻¹
- kon [4]: 518000 M⁻¹ s⁻¹
- IL-18 BP:Rα Dissociation Constant Ratio [5]: 1
- Kd [6]: 0.694 pM
- Kd [7]: < 1 nM
- Kd [8]: 1.9 pM
- Kd [9]: < 0.1 nM
- Kd [10]: 0.002 nM
- Dissociation Constant Ratio normalized to WT IL-18 [11]: 1
- KD ratio IL-18BP/IL-18Rα [11]: 0.000648
- Dissociation Constant Ratio normalized to WT IL-18 [12]: 1
- KD ratio IL-18BP/IL-18Rα [12]: 0.295
- Kd [12]: 7.08 nM
Substance: wild-type human Interleukin-18 (mature form) (from UniProt Q14116 37-193) (ligand)

Substance: human decoy-to-the-decoy (D2D) IL-18 consensus variant SEQ ID NO: 124 (from UniProt Q14116 37-193)
- Kd [1]: 7.9 nM

Substance: wild-type human Interleukin-18 (mature form) (from UniProt Q14116 37-193)
- Kd ([10]; ligand): 0.6 nM
- Kd [1]: 2.1 nM
